Biological target: AtBAM1 ectodomain (residues 20-629) (Arabidopsis thaliana) (UniProt O49545)
Assay: ITC

UniProt O49545, sequence (O49545 20-629): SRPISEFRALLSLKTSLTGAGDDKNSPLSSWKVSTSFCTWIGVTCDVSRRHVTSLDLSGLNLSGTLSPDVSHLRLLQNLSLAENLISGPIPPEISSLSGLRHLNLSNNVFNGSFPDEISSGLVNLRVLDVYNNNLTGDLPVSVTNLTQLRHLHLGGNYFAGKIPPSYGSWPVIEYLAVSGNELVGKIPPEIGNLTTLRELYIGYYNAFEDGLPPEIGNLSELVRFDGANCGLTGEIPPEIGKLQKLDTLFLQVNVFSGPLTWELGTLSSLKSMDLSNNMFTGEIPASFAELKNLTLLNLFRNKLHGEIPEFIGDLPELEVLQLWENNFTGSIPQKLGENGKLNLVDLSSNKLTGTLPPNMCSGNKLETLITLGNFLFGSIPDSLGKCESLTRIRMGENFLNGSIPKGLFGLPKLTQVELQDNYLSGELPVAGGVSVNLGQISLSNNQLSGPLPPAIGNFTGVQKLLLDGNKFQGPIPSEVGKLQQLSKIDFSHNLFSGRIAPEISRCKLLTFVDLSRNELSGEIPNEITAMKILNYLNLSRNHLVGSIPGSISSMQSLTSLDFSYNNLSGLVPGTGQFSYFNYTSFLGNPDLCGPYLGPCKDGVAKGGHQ

AtCLV3p (Arabidopsis CLAVATA3 peptide)
fold lower affinity than AtCLE13p: 1000 fold
